From patent US20160040149A1, “Compositions Having Dicamba Decarboxylase Activity and Methods of Use” (priority 2013, published 2016)

B1: 586 (protein)
chain: MAQGLVALEEHFAIPETLQDAAGFVPGDYWKELQHRLLDIQDTRLKEMDKHEIGTMVLSLAAPAVQAIPDRRKAIELARRANDFLAEEVAKRPDRFLAFAALPLQDVDAATEELQRCVNDLGFVGAMVNGFSQEGDGQTPLYYDLPQYRPFWKEVEKLDVPFYLHPRNPLPQDSRIYDGHPWLLGPTWAFAQETAVHALRLMASGLFDEHPRLNIILGHLGEGLPYMMYRIDHRIAWVHAPPDYPAKRRFMDYFLENFHITTSGNFRTQTLIDAILEIGADRILFSTDWPFENIDHAADWFNATSIAEADRVKIGRTNARRLFKLDVR
modifications: Dicamba decarboxylase variant
B2: 585 (protein)
chain: MAQGKVALEEHFAIPETLQDAAGFVPGDYWKELQHRLMDIQDTRLKEMDKHEIGTMVLSLAAPAVQAIPDRRKAIELAKRANDFLAEEVAKRPDRFLAFAALPMQDPEAATEELQRCVADLGFVGAMVNGFSQEGDGQTPLYYDLPQYRPFWGEVEKLDVPFYLHPRNPLPQDARIYDGHPWLLGPTWAFAQETAVHALRLMASGLFDEHPRLNIILGHMGEGLPYMMYRIDHRIAWVKAPPDYPAKRRFMDYFLENFWITTSGNFRTQTLIDAILEIGADRILFSTDWPFENIDHAADWFAATSIAEADRVKIGRTNARNLFKLDVS
modifications: Dicamba decarboxylase variant
B3: 584 (protein)
chain: MAQGKVALEEHFAIPETLNDAAGFVPGDYWKELQHRLLDIQDTRLKEMDKHGIGTMILSLAAPAVQGIVDRRQAIEIAKRANDFLAEEVAKRPDRFLAFAALPLQDPDAATSELQRCVADLGFVGAMVNGFSQEGDGQTPLYYDLPQYRPFWKEVEKLDVPFYLHPRNPLPQDARIYDGHPWLLGPTWAFAQETAVHALRLMASGLFDEHPRLNIILGHMGEGLPYMMYRIDHRIAWVKAPPDYPAKRRFMDYFLENFHITTSGNFRTQTLIDAILEIGADRILFSTDWPFENIDHAADWFAATSIAEADRVKIGRTNARRLFKLDVR
modifications: Dicamba decarboxylase variant
B4: 97 (protein, listed as Sphingobium sp.)
chain: MAMMIIDCHGHYTVLPKAHDEWREQQKAAFKAGQPAPPYPEISDDEIRETIEANQLRLIKERGADMTIFSPRASAMAPHVGDQSVAVPWAQACNNLIARVVDLFPETFAGVCMLPQSPEADMTSSIAELERCVNELGFIGCNLNPDPGGGHFKHPPLTDRFWYPFYEKMVELDVPAMIHVSGSCNPAMHATGAYYLAADTIAFMQLLQGNLFADFPTLRFIIPHGGGAVPYHWGRFRGLADMLKQPSLDTLLMNNVFFDTCVYHQPGINLLADVIDNKNILFGSEMVGAVRGIDPTTGHYFDDTKRYIDALDISDQERHAIFEGNTRRVFPRLDAKLKARGL
B5: 96 (protein)
chain: MAPLIVDVHTHVYPPAYMQMLRSRKTVPYVHDPSNNRDPRLIILSSDDDASIPLDQRGRPVDSSYWDINVKLSFMRQHGINCSVISLANPWLDFVEPAEAQMWAERINDDLEKTCATVNKAADPGNTLTLDQKETLFAFGALPLSAPSSESVVAEIKRLKTLEHLRGVIMGTSGLGKGLDDARLDPVWEALQETDMLMFLHPHYGLPEEAYGGPETTGRYGHVLPLALGFPLETTIAVTRMLLSGVFDRFPRLKILLAHSGGTLPFLAGRIESCILHERKFISGGGDVQGPQRSVWDVLKTNIYLDAVVYGKPGLEAAMTASGSDRLLFGTDHPFFPPLDSKDNSWPSVTTNYQAIHATFDTNSKTVADVLGGNAARILNLK
modifications: Aspergillus nidulans
B6: 104 (protein)
chain: MANILQEPIDFLKKEELKNIDLSQMSKKERYKIWKRIPKCELHCHLDLCFSADFFVSCIRKYNLQPNLSDEEVLDYYLFAKGGKSLGEFVEKAIKVADIFHDYEVIEDLAKHAVFNKYKEGVVLMEFRYSPTFVAFKYNLDIELIHQAIVKGIKEVVELLDHKIHVALMCIGDTGHEAANIKASADFCLKHKADFVGFDHGGHEVDLKEYKEIFDYVRESGVPLSVHAGEDVTLPNLNTLYSAIQVLKVERIGHGIRVAESQELIDMVKEKNILLEVCPISNVLLKNAKSMDTHPIRQLYDAGVKVSVNSDDPGMFLTNINDDYEELYTHLNFTLEDFMKMNEWALEKSFMDSNIKDKIKNLYF
modifications: Plasmodium Vivax
B7: 102 (protein, listed as Lactobacillus plantarum)
chain: MATKTFKTLDDFLGTHFIYTYDNGWEYEWYAKNDHTVDYRIHGGMVAGRWVTDQKADIVMLTEGIYKISWTEPTGTDVALDFMPNEKKLHGTIFFPKWVEEHPEITVTYQNEHIDLMEQSREKYATYPKLVVPEFANITYMGDAGQNNEDVISEAPYKEMPNDIRNGKYFDQNYHRLNK
B8: 106 (protein, listed as Pyrococcus horikoshii)
chain: MAGMKFIKNLHVSKLVIDSMKALINGTIYTSFNPLKKVSGLVISHGKVIYAGDSEVAKKIVELSGGEIVDLKGKYVMPAFFDSHLHLDELGMSLEMVDLRGAKSIEELIQRLKRGKGRIIFGFGWDQDELGEWPTRKELNAIDKPVFIYRKCFHVAVANDKMLELLNLTPSKDFDEDTGIIKEKSLEEARKVINERVLTVEDYVYYIKRAQEHLLDLGVKSVSFMSVNEKALRALFYLEREGKLSINVFAYVTPEVLDKLESIGLGRFQGNRLTIAGVKLFTDGSLGARTALLSKPYSDDPSTSGQLVMEREELIRITEKARSLGLDVAIHAIGDKALDVALDVFETTGFPGRIEHASLVRDDQLERVKNLKVRLSVQPHFIISDWWIVERVGEERVKWVYRFKDLMKVAELGFSTDSPIEPADPWLTVDAAVNRGKGKVKLYELTKDQALDIKDALHSYTYGSARVSLASDIGKLEPGFKAEYIILDRDPLVVK
B9: 101 (protein, listed as Aquifex aeolicus)
chain: MAQKIALCITGASGVIYGIKLLQVLEELDFSVDLVISRNAKVVLKEEHSLTFEEVLKGLKNVRIHEENDFTSPLASGSRLVHYRGVYVVPCSTNTLSCIANGINKNLIHRVGEVALKERVPLVLLVREAPYNEIHLENMLKITRMGGVVVPASPAFYHKPQSIDDMINFVVGKLLDVLRIEHNLYKRWRG
B10: 107 (protein, listed as Rhodopseudomonas palustris)
chain: MAIIDIHGHYTTAPKALEDWRNRQIAGIKDPSVMPKVSELKISDDELQASIIENQLKKMQERGSDLTVFSPRASFMAHHIGDFNVSSTWAAICNELCYRVSQLFPDNFIGAAMLPQSPGVDPKTCIPELEKCVKEYGFVAINLNPDPSGGHWTSPPLTDRIWYPIYEKMVELEIPAMIHVSTSCNTCFHTTGAHYLNADTTAFMQCVAGDLFKDFPELKFVIPHGGGAVPYHWGRFRGLAQEMKKPLLEDHVLNNIFFDTCVYHQPGIDLLNTVIPVDNVLFASEMIGAVRGIDPRTGFYYDDTKRYIEASTILTPEEKQQIYEGNARRVYPRLDAALKAKGK
B11: 98 (protein)
chain: MAIIDCHGHYTTAPAAHDAFRKAQIAHHDDPQQPAPQYPHISDDALRESIEQHQLRLLRERGADMTIFSPRASTMAHHIGNEAVSQVWTQRCNDLIARVVQLYPHTFIGVCQLPQSPGVPISHSIAELERCVNELGFVGCNLNPDPSGGHWNGVPLTDRAWYPFFEKMVELDVPAMVHVSGSCNANFHATGAHYLNADTTAFMQFLEGDLFRDFPSLRFIIPHGGGAVPYHWGRFRGLADMLGKPPLATHVMRNVFFDTCVYHQPGIDLLFEVIDIDNILFGSEMVGAVRGIDPQTGHYFDDTKRYIDALTISDADKRKVFEGNARRVYPRLDAQLRARGL
modifications: Xanthomonas campestris pv.
B12: 99 (protein, listed as Ralstonia solanacearum)
chain: MAIIDCHGHFTTAPTALEDWRKRQIANLATPALGPSPDDLKISDDALTEAIRANQLRLMQARGSDLTIFSPRASFMAHHIGDFHTSATWAAICNALCHRVSQLFPDHFVGAAMLPQSPGVDIRTCIPELARCIVDYGFVGVNLNPDPSGGHWTSPPLSDPYWFPLYEKLVEYDVPAMIHVSTSCNACFHTTGAHYLNADTTAFMQVLTSDLFRRFPTLKFVIPHGGGAVPYHWGRFRGLAQELKTPPLQEHLLHNVFFDTCVYHQPGIDLLTRVIPVDNILFASEMIGAVRGIDPETGHPFDDTRRYIDQAHTLSAEDRHKIYEGNARRVYPRLDARLKARGR
B13: 105 (protein)
chain: MAIDFHVHLDLYPDPVAVARACEERQLTVLSVTTTPAAWRGTLALAAGRPHVWTALGFHPEVVSERAADLPWFDRYLPETRFVGEVGLDGSPSLRGTWTQQFAVFQHILRRCEDHGGRILSIHSRRAESEVLNCLEANPRSGTPILHWYSGSVTELRRAISLGCWFSVGPTMVRTQKGAALIRSMPRDRVLTETDGPFLELDGQAALPWDVKSVVEGLSKIWQIPASEVERIVKENVSRLLGTVR
modifications: Deinococcus radiodurans
B14: 103 (protein)
chain: MAMEIPTEEIKFLKKEDVQNIDLNGMSKKERYEIWRRIPKVELHCHLDLTFSAEFFLKWARKYNLQPNMSDDEILDHYLFTKEGKSLAEFIRKAISVSDLYRDYDFIEDLAKWAVIEKYKEGVVLMEFRYSPTFVSSSYGLDVELIHKAFIKGIKNATELLNNKIHVALICISDTGHAAASIKHSGDFAIKHKHDFVGFDHGGREIDLKDHKDVYHSVRDHGLHLTVHAGEDATLPNLNTLYTAINILNVERIGHGIRVSESDELIELVKKKDILLEVCPISNLLLNNVKSMDTHPIRKLYDAGVKVSVNSDDPGMFLSNINDNYEKLYIHLNFTLEEFMIMNNWAFEKSFVSDDVKSELKALYF
modifications: Plasmodium yoelii yoelii
B15: 6 (protein)
chain: MAEILSPEESIYYSKLSNDILAEGIKKNPTRFRGFAALPTPDPIQAAMELERCIKLGGFVGAIINGHINGHYLDEIQFDPILEAADALDVPLYIHPAVPPKAIIDTYYKMNDTYAQTVMVSGGWGWHIETGVHVLRLISSGVFDRHPNLKIVIGHLGEGLPFFMHRLNNAIGGNLKKSYSTYLKENIYYTISGFNDPDLFQFVLKKVGENNIMFSSDYPFNFPKREVELFNELNISEEVREKISFKNAERILKI
modifications: Treponema brennaborense

Experiment: DNA shuffling libraries: 14CO2 capturing assay in 384-well format, fold activity of backbone (Megatable 2)
Conditions: relative to backbone SEQ ID NO: 509 (DDEC0810)

Q: Which “Fold Activity” value does the source give for B1 here?
A: Its value is 1.2 fold.

Q: Which “Fold Activity” value does the source give for B2 here?
A: The value was 1.8 fold.

Q: For B3, which “Fold Activity” value is on record?
A: Its value is 0.9 fold.

Experiment: Saturation mutagenesis of SEQ ID NO:109: dicamba decarboxylation activity of point mutants (CO2 released), fold of backbone (Tables 7, 8, Megatable 1)
Conditions: decarboxylation activity (CO2 released) of point mutant vs unmutated backbone protein; backbone SEQ ID NO: 109

Q: For B4, which “Fold Activity” value is on record?
A: The value was 2.9 fold.

Q: With B5 as the molecule, how does the “Fold Activity” value read?
A: The value was 1.1 fold.

Q: With B6 as the molecule, how does the “Fold Activity” value read?
A: Its value is 2.1 fold.

Q: With B7 as the molecule, how does the “Fold Activity” value read?
A: Its value is 2.6 fold.

Q: For B8, which “Fold Activity” value is on record?
A: The value was 0.8 fold.

Q: With B9 as the molecule, how does the “Fold Activity” value read?
A: The value was 1.8 fold.

Q: Which “Fold Activity” value does the source give for B10 here?
A: The value was 1.7 fold.

Q: With B11 as the molecule, how does the “Fold Activity” value read?
A: Its value is 2.3 fold.

Q: For B12, which “Fold Activity” value is on record?
A: The value was 1.7 fold.

Q: For B13, which “Fold Activity” value is on record?
A: Its value is 0.9 fold.

Q: Which “Fold Activity” value does the source give for B14 here?
A: Its value is 1.7 fold.

Q: With B15 as the molecule, how does the “Fold Activity” value read?
A: Its value is 0.9 fold.
